Drawing on patent US20200199241A1 (Chugai, published 2020), this text covers Kd for nine molecules.

B1: IgG1-F21 (antibody)
heavy: QVQLQESGPGLVKPSETLSLTCAVSGHSISHDHAWSWVRQPPGEGLEWIGFISYSGITNYNPSLQGRVTISRDNSKNTLYLQMNSLRAEDTAVYYCARSLARTTAMDYWGEGTLVTVSSASTKGPSVFPLAPSSKSTSGGTAALGCLVKDYFPEPVTVSWNSGALTSGVHTFPAVLQSSGLYSLSSVVTVPSSSLGTQTYICNVNHKPSNTKVDKKVEPKSCDKTHTCPPCPAPELLGGPSVFLFPPKPKDTLYISRTPEVTCVVVDVSHEDPEVKFNWYVDGVEVHNAKTKPREEQYNSTYRVVSVLTPLHQDWLNGKEYKCKVSNKALPAPIEKTISKAKGQPREPQVYTLPPSRDELTKNQVSLTCLVKGFYPSDIAVEWESNGQPENNYKTTPPVLDSDGSFFLYSKLTVDKSRWQQGNVFSCSVMHEALHYHYTQKSLSLSP
light: not shown
notes: copies: 2 + 2
B2: IgG1-F39 (antibody)
heavy: QVQLQESGPGLVKPSETLSLTCAVSGHSISHDHAWSWVRQPPGEGLEWIGFISYSGITNYNPSLQGRVTISRDNSKNTLYLQMNSLRAEDTAVYYCARSLARTTAMDYWGEGTLVTVSSASTKGPSVFPLAPSSKSTSGGTAALGCLVKDYFPEPVTVSWNSGALTSGVHTFPAVLQSSGLYSLSSVVTVPSSSLGTQTYICNVNHKPSNTKVDKKVEPKSCDKTHTCPPCPAPELLGGPSVFLFPPKPKDTLYITRTPEVTCVVVDVSHEDPEVKFNWYVDGVEVHNAKTKPREEQYNSTYRVVSVLTVLHQDWLNGKEYKCKVSNKALPAPIEKTISKAKGQPREPQVYTLPPSRDELTKNQVSLTCLVKGFYPSDIAVEWESNGQPENNYKTTPPVLDSDGSFFLYSKLTVDKSRWQQGNVFSCSVMHEALHYHYTQKSLSLSP
light: not shown
notes: EU numbering; copies: 2 + 2
B3: IgG1-F76 (antibody)
heavy: QVQLQESGPGLVKPSETLSLTCAVSGHSISHDHAWSWVRQPPGEGLEWIGFISYSGITNYNPSLQGRVTISRDNSKNTLYLQMNSLRAEDTAVYYCARSLARTTAMDYWGEGTLVTVSSASTKGPSVFPLAPSSKSTSGGTAALGCLVKDYFPEPVTVSWNSGALTSGVHTFPAVLQSSGLYSLSSVVTVPSSSLGTQTYICNVNHKPSNTKVDKKVEPKSCDKTHTCPPCPAPELLGGPSVFLFPPKPKDTLYITREPEVTCVVVDVSHEDPEVKFNWYVDGVEVHNAKTKPREEQYNSTYRVVSVLTVLHQDWLNGKEYKCKVSNKALPAPIEKTISKAKGQPREPQVYTLPPSRDELTKNQVSLTCLVKGFYPSDIAVEWESNGQPENNYKTTPPVLDSDGSFFLYSKLTVDKSRWQQGNVFSCSVLHEALHAHYTQKSLSLSP
light: not shown
notes: EU numbering; copies: 2 + 2
B4: IgG1-F38 (antibody)
heavy: QVQLQESGPGLVKPSETLSLTCAVSGHSISHDHAWSWVRQPPGEGLEWIGFISYSGITNYNPSLQGRVTISRDNSKNTLYLQMNSLRAEDTAVYYCARSLARTTAMDYWGEGTLVTVSSASTKGPSVFPLAPSSKSTSGGTAALGCLVKDYFPEPVTVSWNSGALTSGVHTFPAVLQSSGLYSLSSVVTVPSSSLGTQTYICNVNHKPSNTKVDKKVEPKSCDKTHTCPPCPAPELLGGPSVFLFPPKPKDTLYITRTPEVTCVVVDVSHEDPEVKFNWYVDGVEVHNAKTKPREEQYNSTYRVVSVLTVLHQDWLNGKEYKCKVSNKALPAPIEKTISKAKGQPREPQVYTLPPSRDELTKNQVSLTCLVKGFYPSDIAVEWESNGQPENNYKTTPPVLDSDGSFFLYSKLTVDKSRWQQGNVFSCSVMHEALHWHYTQKSLSLSP
light: not shown
notes: EU numbering; copies: 2 + 2
B5: IgG1-F75 (antibody)
heavy: QVQLQESGPGLVKPSETLSLTCAVSGHSISHDHAWSWVRQPPGEGLEWIGFISYSGITNYNPSLQGRVTISRDNSKNTLYLQMNSLRAEDTAVYYCARSLARTTAMDYWGEGTLVTVSSASTKGPSVFPLAPSSKSTSGGTAALGCLVKDYFPEPVTVSWNSGALTSGVHTFPAVLQSSGLYSLSSVVTVPSSSLGTQTYICNVNHKPSNTKVDKKVEPKSCDKTHTCPPCPAPELLGGPSVFLFPPKPKDTLYISRTPEVTCVVVDVSHEDPEVKFNWYVDGVEVHNAKTKPREEQYNSTYRVVSVLTVLHQDWLNGKEYKCKVSNKALPAPIEKTISKAKGQPREPQVYTLPPSRDELTKNQVSLTCLVKGFYPSDIAVEWESNGQPENNYKTTPPVLDSDGSFFLYSKLTVDKSRWQQGNVFSCSVLHEALHAHYTQKSLSLSP
light: not shown
notes: EU numbering; copies: 2 + 2
B6: IgG1-F74 (antibody)
heavy: QVQLQESGPGLVKPSETLSLTCAVSGHSISHDHAWSWVRQPPGEGLEWIGFISYSGITNYNPSLQGRVTISRDNSKNTLYLQMNSLRAEDTAVYYCARSLARTTAMDYWGEGTLVTVSSASTKGPSVFPLAPSSKSTSGGTAALGCLVKDYFPEPVTVSWNSGALTSGVHTFPAVLQSSGLYSLSSVVTVPSSSLGTQTYICNVNHKPSNTKVDKKVEPKSCDKTHTCPPCPAPELLGGPSVFLFPPKPKDTLYISRTPEVTCVVVDVSHEDPEVKFNWYVDGVEVHNAKTKPREEQYNSTYRVVSVLTVLHQDWLNGKEYKCKVSNKALPAPIEKTISKAKGQPREPQVYTLPPSRDELTKNQVSLTCLVKGFYPSDIAVEWESNGQPENNYKTTPPVLDSDGSFFLYSKLTVDKSRWQQGNVFSCSVLHEALHYHYTQKSLSLSP
light: not shown
notes: EU numbering; copies: 2 + 2
B7: IgG1-F42 (antibody)
heavy: QVQLQESGPGLVKPSETLSLTCAVSGHSISHDHAWSWVRQPPGEGLEWIGFISYSGITNYNPSLQGRVTISRDNSKNTLYLQMNSLRAEDTAVYYCARSLARTTAMDYWGEGTLVTVSSASTKGPSVFPLAPSSKSTSGGTAALGCLVKDYFPEPVTVSWNSGALTSGVHTFPAVLQSSGLYSLSSVVTVPSSSLGTQTYICNVNHKPSNTKVDKKVEPKSCDKTHTCPPCPAPELLGGPSVFLFPPKPKDTLYITREPEVTCVVVDVSHEDPEVKFNWYVDGVEVHNAKTKPREEQYNSTYRVVSVLTVLHQDWLNGKEYKCKVSNKALPAPIEKTISKAKGQPREPQVYTLPPSRDELTKNQVSLTCLVKGFYPSDIAVEWESNGQPENNYKTTPPVLDSDGSFFLYSKLTVDKSRWQQGNVFSCSVMHEALHAHYTQKSLSLSP
light: not shown
notes: EU numbering; copies: 2 + 2
B8: IgG1-F73 (antibody)
heavy: QVQLQESGPGLVKPSETLSLTCAVSGHSISHDHAWSWVRQPPGEGLEWIGFISYSGITNYNPSLQGRVTISRDNSKNTLYLQMNSLRAEDTAVYYCARSLARTTAMDYWGEGTLVTVSSASTKGPSVFPLAPSSKSTSGGTAALGCLVKDYFPEPVTVSWNSGALTSGVHTFPAVLQSSGLYSLSSVVTVPSSSLGTQTYICNVNHKPSNTKVDKKVEPKSCDKTHTCPPCPAPELLGGPSVFLFPPKPKDTLYISRTPEVTCVVVDVSHEDPEVKFNWYVDGVEVHNAKTKPREEQYNSTYRVVSVLTVLHQDWLNGKEYKCKVSNKALPAPIEKTISKAKGQPREPQVYTLPPSRDELTKNQVSLTCLVKGFYPSDIAVEWESNGQPENNYKTTPPVLDSDGSFFLYSKLTVDKSRWQQGNVFSCSVLHEALHWHYTQKSLSLSP
light: not shown
notes: EU numbering; copies: 2 + 2
B9: IgG1-F72 (antibody)
heavy: QVQLQESGPGLVKPSETLSLTCAVSGHSISHDHAWSWVRQPPGEGLEWIGFISYSGITNYNPSLQGRVTISRDNSKNTLYLQMNSLRAEDTAVYYCARSLARTTAMDYWGEGTLVTVSSASTKGPSVFPLAPSSKSTSGGTAALGCLVKDYFPEPVTVSWNSGALTSGVHTFPAVLQSSGLYSLSSVVTVPSSSLGTQTYICNVNHKPSNTKVDKKVEPKSCDKTHTCPPCPAPELLGGPSVFLFPPKPKDTLYITREPEVTCVVVDVSHEDPEVKFNWYVDGVEVHNAKTKPREEQYNSTYRVVSVLTVLHQDWLNGKEYKCKVSNKALPAPIEKTISKAKGQPREPQVYTLPPSRDELTKNQVSLTCLVKGFYPSDIAVEWESNGQPENNYKTTPPVLDSDGSFFLYSKLTVDKSRWQQGNVFSCSVLHEALHYHYTQKSLSLSP
light: not shown
notes: EU numbering; copies: 2 + 2

T1 sequence (chain, as listed by the source limits assumed, chain 1 of 2): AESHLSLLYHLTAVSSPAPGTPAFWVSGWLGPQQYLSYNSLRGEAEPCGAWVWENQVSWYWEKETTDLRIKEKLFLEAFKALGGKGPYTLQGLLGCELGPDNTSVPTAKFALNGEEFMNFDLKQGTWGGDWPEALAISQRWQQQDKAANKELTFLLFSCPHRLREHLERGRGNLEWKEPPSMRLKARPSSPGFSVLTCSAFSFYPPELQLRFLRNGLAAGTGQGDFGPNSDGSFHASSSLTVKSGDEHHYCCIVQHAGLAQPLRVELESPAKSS
T1 sequence (P61769 21-119 limits assumed, chain 2 of 2): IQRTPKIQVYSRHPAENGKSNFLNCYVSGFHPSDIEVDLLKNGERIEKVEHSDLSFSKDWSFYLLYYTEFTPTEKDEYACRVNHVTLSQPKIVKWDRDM

This assay addresses T1, human FcRn (soluble human FcRn complexed with β2-microglobulin) (human, UniProt P61769 21-119, limits assumed).
T1 construct: also called hFcRn
The experiment in a line: SPR, pH 7.0.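 Also: antibodies captured on a Protein L sensor chip with human FcRn injected as analyte, KD calculated from fitted association and dissociation rate constants.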
B1 had a Kd of 30 nM. This counts as double-digit nanomolar.

B2 yielded a Kd of 300 nM. Compared with the last molecule, the Kd is about 10-fold higher.

B3: the equilibrium dissociation constant (Kd) turned out to be 1000 nM. Against the preceding molecule, the Kd is about 3.3-fold higher.

B4 came in with a dissociation constant (Kd) of 100 nM.

In the case of B5, binding was characterised by a dissociation constant (Kd) of 1400 nM.

The molecule B6 came in with a Kd of 460 nM.

Regarding B7, the affinity, expressed as Kd, was 1000 nM.

For the molecule B8, the Kd is 170 nM.

On to B9, for which the Kd was determined as 200 nM.
